{
  "source": "IntAct's records for PubMed 23942232",
  "parents": {"B1": {"name": "TNF receptor-associated factor 6 (Mus musculus), P70196 (parent)", "chain": "MSLLNCENSCGSSQSSSDCCAAMAASCSAAVKDDSVSGSASTGNLSSSFMEEIQGYDVEFDPPLESKYECPICLMALREAVQTPCGHRFCKACIIKSIRDAGHKCPVDNEILLENQLFPDNFAKREILSLTVKCPNKGCLQKMELRHLEDHQVHCEFALVNCPQCQRPFQKCQVNTHIIEDCPRRQVSCVNCAVSMAYEEKEIHDQSCPLANIICEYCGTILIREQMPNHYDLDCPTAPIPCTFSVFGCHEKMQRNHLARHLQENTQLHMRLLAQAVHNVNLALRPCDAASPSRGCRPEDPNYEETIKQLESRLVRQDHQIRELTAKMETQSMYVGELKRTIRTLEDKVAEMEAQQCNGIYIWKIGNFGMHLKSQEEERPVVIHSPGFYTGRPGYKLCMRLHLQLPTAQRCANYISLFVHTMQGEYDSHLPWPFQGTIRLTILDQSEALIRQNHEEVMDAKPELLAFQRPTIPRNPKGFGYVTFMHLEALRQGTFIKDDTLLVRCEVSTRFDMGGLRKEGFQPRSTDAGV"}},
  "data": [
    {"variants_of": "B1", "details": "with ern1_mouse Ern1, Q9EQY0", "values": [
      {"variant": "C70A", "effect of a mutation on the interaction": "increasing interaction"}
    ]}
  ]
}
